B1: Twister Ribozyme (parent)
chain: AACACUGCCAAUGCCGGUCCCAAGCCCGGAUAAAAGUGGAGGGGGCGG

The variants in the data set derive from B1. Kind of data set: self-cleavage, relative activity (ratio to wild type); higher = more cleavage; co-transcriptional.
As for C5G A32G, the self-cleavage came to 0.749.

As to C5G G39C, the self-cleavage came to 0.106.

On to A10C G41A, for which the self-cleavage was found to be 0.494.

Regarding A11U A35G, the self-cleavage worked out at 0.919.

In the case of C15G C46G, the self-cleavage was 0.111.

C20U G45C: the self-cleavage worked out at 0.425.

For the variant A1G U37A, the self-cleavage turned out to be 0.307.

Regarding A4C A23U, the self-cleavage is 0.0688.

With A33U G44A, the self-cleavage was determined as 0.907.

For the variant A33U G44C, the self-cleavage came out at 0.928.

On to C14U U18C, for which the self-cleavage was found to be 0.594.

As to C21G A22U, the self-cleavage amounted to 0.118.

Take A10C A40U: the self-cleavage stood at 0.155.

For the variant C9U G29C, the self-cleavage stood at 0.242.

As for G7A G29C, the self-cleavage was 0.12.

Consider C27U G42A, for which the self-cleavage stood at 0.184.

With C27U G42C, the self-cleavage stood at 0.19.

As for C21U A34C, the self-cleavage was found to be 0.0844.

For A22C A40G, the self-cleavage stood at 0.128.

On to G16A C26G, for which the self-cleavage amounted to 0.112.

As to U12G U18G, the self-cleavage worked out at 0.0252.

In the case of A4C G41A, the self-cleavage was determined as 0.0502.

In the case of C3U, the self-cleavage is 0.48.

Consider C3U A33C, for which the self-cleavage was found to be 0.476.

Regarding G13C A40C, the self-cleavage turned out to be 0.0965.

C5G C20U: the self-cleavage was 0.65.

With A2C G48A, the self-cleavage worked out at 0.0475.

In the case of C8U U31A, the self-cleavage came out at 0.592.

Take U6G G36C: the self-cleavage worked out at 0.0766.

For C3G C25U, the self-cleavage was 0.317.

Consider A34C G38A, for which the self-cleavage is 0.232.

On to C9A A22U, for which the self-cleavage turned out to be 0.259.

C9A A22C: the self-cleavage worked out at 0.642.

Turning to C15A A22C, the self-cleavage is 0.533.

In the case of C5U A23U, the self-cleavage was 0.306.

On to U6A G28A, for which the self-cleavage turned out to be 0.616.

Consider G42A G47C, for which the self-cleavage worked out at 0.241.

Turning to C3G G47U, the self-cleavage is 0.361.

Consider C21U A23G, for which the self-cleavage was 0.0801.

As to G7A C9U, the self-cleavage was 0.0809.

Take A22G G44C: the self-cleavage amounted to 0.225.

For U18A A22C, the self-cleavage came out at 0.485.

On to C19A A30C, for which the self-cleavage worked out at 0.124.

As to C20A G41A, the self-cleavage worked out at 0.0878.

Consider A2U A10G, for which the self-cleavage worked out at 0.674.

Regarding A40U G45A, the self-cleavage amounted to 0.192.

As to G43A G45U, the self-cleavage came to 0.305.

In the case of C19G A30G, the self-cleavage was determined as 0.468.

On to C3A G7U, for which the self-cleavage came to 0.0571.

For the variant G29U A34G, the self-cleavage was 0.684.

As to C27G U31A, the self-cleavage is 0.099.

Take G7A G44A: the self-cleavage stood at 0.619.

With A23G G38U, the self-cleavage was found to be 0.236.

In the case of U12A A33G, the self-cleavage came out at 0.969.

U31G G38U: the self-cleavage amounted to 0.778.

In the case of C3G G28U, the self-cleavage is 0.253.

With C3G G28A, the self-cleavage turned out to be 0.239.

Take U6C G38U: the self-cleavage was found to be 0.282.

For U18A A23U, the self-cleavage came to 0.753.

On to A4G C46G, for which the self-cleavage worked out at 1.15.

As to G38U G47C, the self-cleavage stood at 0.228.

For the variant C3G A10C, the self-cleavage amounted to 0.28.

With C26G U37G, the self-cleavage worked out at 0.115.

Consider A33G U37G, for which the self-cleavage is 0.601.

Take C8U U12C: the self-cleavage worked out at 0.753.

G7A C26U: the self-cleavage was determined as 0.102.

As for G28A A33C, the self-cleavage was 0.873.

On to A2G C9G, for which the self-cleavage was 0.0579.

A30G G43A: the self-cleavage was determined as 0.22.

With G7C G44A, the self-cleavage came to 0.0625.

With G43U G44U, the self-cleavage is 0.398.

Take A11G A40U: the self-cleavage turned out to be 0.126.

With C27G G42U, the self-cleavage turned out to be 0.0711.

For C14G A23C, the self-cleavage turned out to be 0.0556.

With C26G G29U, the self-cleavage is 0.0569.

Turning to A10G G17A, the self-cleavage was 1.02.

Take U31G A40G: the self-cleavage was determined as 0.0918.

In the case of A32G G44U, the self-cleavage was found to be 1.06.

On to C27A A30G, for which the self-cleavage is 0.529.

Turning to A23G G39A, the self-cleavage amounted to 0.143.

C19G U31A: the self-cleavage was 0.346.

Turning to C14U G39A, the self-cleavage was 0.509.

For G17U U31G, the self-cleavage turned out to be 0.339.

With A32G G48U, the self-cleavage stood at 1.1.

G42C G45A: the self-cleavage is 0.329.

On to A1C A4G, for which the self-cleavage came to 0.131.

On to A1C A4C, for which the self-cleavage is 0.171.

Turning to C9A G38C, the self-cleavage worked out at 0.589.

On to C15U G16A, for which the self-cleavage turned out to be 0.457.

As for C8U C15U, the self-cleavage was 0.768.

As for C5A C21A, the self-cleavage was 0.0272.

Regarding A34G G36U, the self-cleavage was determined as 0.105.

Take G7U G43A: the self-cleavage amounted to 0.0755.

As to A23G C46G, the self-cleavage is 0.405.

In the case of C21A A33U, the self-cleavage came out at 0.102.

For the variant C9U A23C, the self-cleavage was determined as 0.0976.

Turning to G7A G47C, the self-cleavage is 0.185.

Regarding U37A G43A, the self-cleavage is 0.145.

In the case of C3G A22U, the self-cleavage amounted to 0.384.

With G24U A32G, the self-cleavage was determined as 0.113.

In the case of C9G G45C, the self-cleavage was found to be 0.171.

Consider C9G G45U, for which the self-cleavage was determined as 0.205.

Consider C26G A35U, for which the self-cleavage was found to be 0.497.

As for C26U G42U, the self-cleavage came to 0.15.

Turning to U12C G43U, the self-cleavage was determined as 0.485.

G29C A32G: the self-cleavage worked out at 0.519.

Regarding G13A G28U, the self-cleavage stood at 0.623.

On to C9U C19G, for which the self-cleavage came out at 0.101.

As to G17A A22U, the self-cleavage was 0.258.

As to G44U C46G, the self-cleavage was 0.728.

Regarding C9A A10C, the self-cleavage worked out at 0.574.

For A2U A40U, the self-cleavage came out at 0.154.

U12C G39A: the self-cleavage worked out at 0.609.

As for A1C C25U, the self-cleavage stood at 0.192.

Regarding C20U G38U, the self-cleavage worked out at 0.742.

For C3A A35G, the self-cleavage was found to be 0.222.

On to C3A A10U, for which the self-cleavage was 0.0843.

On to A1U A32U, for which the self-cleavage is 0.0613.

For the variant U18C A40C, the self-cleavage came out at 0.0612.

As to C21G G42C, the self-cleavage was 0.13.

With A4G A40C, the self-cleavage is 0.0709.

Turning to C14A U37G, the self-cleavage came to 0.725.

As for G44C G45A, the self-cleavage worked out at 0.762.

For the variant G41A G44A, the self-cleavage came to 0.483.

Turning to A10G G43A, the self-cleavage was 0.363.

For G28U A30U, the self-cleavage was 0.985.

For the variant C19A G28C, the self-cleavage was determined as 0.135.

Regarding G29U A30U, the self-cleavage was found to be 0.912.

On to G13U G28A, for which the self-cleavage is 0.543.

As to U12A A34G, the self-cleavage amounted to 1.02.

Turning to U31A A34C, the self-cleavage is 0.536.

With A4C A40C, the self-cleavage was 0.0698.

For the variant U31A A40C, the self-cleavage turned out to be 0.207.

With G7C G13A, the self-cleavage worked out at 0.0687.

For U6C C21U, the self-cleavage came to 0.0537.

With A2G C27G, the self-cleavage was determined as 0.138.

As to C27G G41A, the self-cleavage turned out to be 0.0929.

Consider C5G U31C, for which the self-cleavage amounted to 0.584.

C5G U31G: the self-cleavage turned out to be 0.757.

As to A11U G36A, the self-cleavage amounted to 0.559.

With A2U G7U, the self-cleavage was 0.0853.

As for A33U C46U, the self-cleavage was 0.917.

On to A1C G39U, for which the self-cleavage came out at 0.129.

With A2G C5A, the self-cleavage turned out to be 0.0588.

Regarding U12A G39U, the self-cleavage was 0.242.

Regarding A1U G13C, the self-cleavage stood at 0.0521.

Take C3A G16A: the self-cleavage came out at 0.109.

Take U12C G29A: the self-cleavage was determined as 0.988.

Regarding C8G U18C, the self-cleavage was 0.0751.

As to A23G U37C, the self-cleavage worked out at 0.142.

C19G U37G: the self-cleavage is 0.0722.

In the case of C25U A40G, the self-cleavage amounted to 0.121.

A30C G43A: the self-cleavage was 0.187.

In the case of U31A G36U, the self-cleavage stood at 0.292.

Turning to C14A C46A, the self-cleavage came out at 0.773.

Regarding U6C C26G, the self-cleavage is 0.125.

On to C5A G7C, for which the self-cleavage was found to be 0.0608.

Take U6G C21U: the self-cleavage amounted to 0.0405.

Regarding G13A C20U, the self-cleavage was 0.262.

Regarding A10U G44U, the self-cleavage was 0.971.

Turning to A10U G44C, the self-cleavage amounted to 0.937.

For the variant U31A G47U, the self-cleavage came to 0.621.

On to C5U G13C, for which the self-cleavage was found to be 0.13.

With C8A A33G, the self-cleavage is 0.228.

As to C5U G36U, the self-cleavage was determined as 0.644.

With A1C C9G, the self-cleavage amounted to 0.23.

Regarding C26A G48C, the self-cleavage came out at 0.434.
